Source: patent US20100261777, “Inhibiton of metallo-beta-lactamase by double-stranded dna” (published 2010)

Columns and labels:
[1] = molecular target: T1, metallo-beta-lactamase (class B) 5/B/6 (Bacillus cereus) (UniProt P14488); assay: inhibition; settings: for IC50: cephalosporin C 4 mM; for IC50 / Ki: MOPS pH 7.0, 30 C; for Ki: noncompetitive
T1 sequence: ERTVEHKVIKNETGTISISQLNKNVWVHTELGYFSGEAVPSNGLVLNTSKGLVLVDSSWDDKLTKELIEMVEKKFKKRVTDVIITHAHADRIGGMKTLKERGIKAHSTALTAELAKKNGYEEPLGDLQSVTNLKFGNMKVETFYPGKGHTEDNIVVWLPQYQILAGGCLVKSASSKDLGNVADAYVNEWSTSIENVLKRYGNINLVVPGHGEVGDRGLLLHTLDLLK

[2] = molecular target: T2, metallo-beta-lactamase (class B) 5/B/6 (Bacillus cereus, UniProt P14488 P14488:30-256); assay: inhibition; single strand control; settings: tags: strain 5/B/6; desalted enzyme used for SELEX
T2 sequence: T1 sequence

[3] = molecular target: T3, carboxypeptidase A (Bos taurus, UniProt P00730 P00730:111-419); assay: inhibition; 10% LiCl, 30 C, hippuryl-L-phenylalanine 1 mM; settings: tags: bovine, zinc-dependent
T3 sequence: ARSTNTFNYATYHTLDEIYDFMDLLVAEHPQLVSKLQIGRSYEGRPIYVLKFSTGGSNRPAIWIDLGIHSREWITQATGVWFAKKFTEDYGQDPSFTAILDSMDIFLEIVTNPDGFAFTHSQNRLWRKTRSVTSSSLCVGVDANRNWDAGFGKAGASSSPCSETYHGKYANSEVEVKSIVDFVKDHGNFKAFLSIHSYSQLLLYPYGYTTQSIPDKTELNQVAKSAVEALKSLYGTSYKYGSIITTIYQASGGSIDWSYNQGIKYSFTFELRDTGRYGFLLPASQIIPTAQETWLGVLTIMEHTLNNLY
Experimental: Bovine Carboxypeptidase A Assay. The assay used for the bovine carboxypeptidase A is based on the method developed by Folk and Schirmer (1963). The rate of hydrolysis of hippuryl-L-phenylalanine is determined by monitoring the increase in absorbance at 254 nm (25° C., pH=7.5). The enzyme was dissolved in 10% lithium chloride to a concentration of 1-3 units per mL. Hippuryl-L-phenylalanine (1 mM) was dissolved in 0.05 M Tris HCl, pH=7.5 with 0.5 M sodium chloride. In a 1 cm cuvette, 1.0 mL of substrate was added and incubated in the spectraphotometer at 25° C. for 3-4 minutes to reach temperature equilibrium and establish a blank rate. Fifty μL of diluted enzyme was preincubated for 15 minutes at 25° C. with or without the inhibitor and was then added to record the increase in absorbance at 254 nm.
At 25 times the IC₅₀ value (275 nM) for the metallo-β-lactamase no inhibition of the against B. cereus 569/H/9 β-lactamase I was detected (data not shown) Additionally a bovine carboxypeptidase A (Zn²⁺dependent enzyme) assay was performed to test for Zn²⁺ specificity. […] The enzyme was incubated in the buffer (10% LiC1) for 15 minutes at 30° C. The concentration of the substrate (Hippuryl-L-phenylalanine) is 1 mM.

ATGATCCGGTGCTGT (double strand) [ds 15-mer]
IC50 [1]: 21 nM | Ki ([1]; KI' 76.5 nM): 103 nM

CGCGAGCTCCGCGCGNNNNNNNNNNNNNNNNNNNNNNNNNNNNNNCGCGCGCATATGGCGC (double strand) [round 8 SELEX pool (30 nt random insert)]
activity ([1]; preliminary, pool after round 8, DNA quantitation approximate): 25 % inhibition

ATGATCCGGTGCTGTATGTTCCTACATGA (double strand) [ds 29-mer]
IC50 ([1]; no added Zn2+): 14 nM | Ki ([1]; KI' 9.1 nM, no added Zn2+): 11 nM

ATGTTCCTACATGA (double strand) [ds 14-mer]
IC50 [1]: 11 nM | Ki ([1]; KI' 13 nM): 13 nM

ATGATCCGGTGCTGT (ssDNA) [ss 15-mer top strand]
IC50 [2]: 150 nM

ACAGCACCGGATCAT (ssDNA) [ss 15-mer complementary strand]
IC50 [2]: 750 nM

B1: ds 14-mer (dsDNA)
DNA 1: ATGTTCCTACATGA
DNA 2: TCATGTAGGAACAT
IC50 [3]: 100 nM
